Where a chain is given by its changes, count along the chain named.
B1: TIGIT-6 chimeric antibody (antibody, human IgG1, kappa, V domains shown)
VH: QVQLKQSGPELVKPGASVKISCKTSGYTITENTMHWVKQSHGKSLEWIGGINPNNGGTSYNQQFKGKATLTVDKSSSTAYMELRSLTSEDSAVYYCTRSSYYRYDLDYWGQGTTVTVSS
VL: DIQMTQSHKFMSTSVGDRVSITCKASQDVKTALAWYQQKPGQSPKLLIYSASYRYTGVPDRFTGSGSGTDFTFTISSVQAEDLAVYYCHQHYTTPWTFGGGTKLEIKR
notes: also called 6VH + 6VL
B2: 4.1D3 (anti-TIGIT positive control antibody) (antibody, V domains shown)
VH: QVQLQQSGPGLVKPSQTLSLTCAISGDSVSSNSAAWNWIRQSPSRGLEWLGKTYYRFKWYSDYAVSVKGRITINPDTSKNQFSLQLNSVTPEDTAVFYCTRESTTYDLLAGPFDYWGQGTLVTVSS
VL: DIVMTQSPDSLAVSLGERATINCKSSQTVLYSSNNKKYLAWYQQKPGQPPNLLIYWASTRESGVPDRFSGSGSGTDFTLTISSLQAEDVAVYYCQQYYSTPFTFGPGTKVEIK
B3: TIGIT-3 chimeric antibody (antibody, human IgG1, kappa, V domains shown)
VH: EVQLVESGGGLVQPGGSLKLSCAASGFTFSSYGMSWVRQTPDKRLELVATIKSDGGSTNLPDSVKGRFTISRDNAKNTLHLQMSSLKSEDTAMYYCVRGYFDYWGQGTSVTVSS
VL: DIVMTQSHKFMSTSVGDRVSITCKASQDVKTAVAWYQQKPGQSPKLLIYWSSTRHTGVPDRFTGSRSLTDHTLTISSVQAEDLALYYCQQYYSTPYTFGGGTKLELKR
notes: also called 3VH + 3VL
B4: TIGIT-15 chimeric antibody (antibody, human IgG1, kappa, V domains shown)
VH: DVQLVESGGGLVQPGGSLKLSCAASGFTFSSYGMSWVRQTPDRRLELVATINNNGGSTYYPDSVKGRFTISRDNARNTLYLQMSSLKSEDTAMYYCATRTGTEILGFDFWGQGTTLTVSS
VL: DIVLTQSHKFMSTSLGDRVSITCKASQDVSTAVAWYQQKPGQSPKLLIYWASSRHTGVPDRFTGSRSGPDYTLTISSVQAEDLALYYCQQQYSTPWTFGGGTKLEIKR
notes: Full-length chimeric IgG1 kappa
B5: TIGIT-94 chimeric antibody (antibody, human IgG1, kappa, V domains shown)
VH: EVKLVESGGGLVKPGGSLKLSCAASGFTFSTYTMSWVRQTPEKRLEWVATISSGGTYTHYPDSVKGRFTISRDNAKNTLYLQMSSLKSEDTAMYYCTRWFLSLYAMDYWGQGTSVTVSS
VL: DIVMTQSTSSLSASLGDRVTISCRASQDINNFLNWYQQKPAGTVDLLIYYTSRLHSGVPSRFSGSGSGTDYSLTISNLDQEDIATYFCQQGNTFPYTFGGGTRLEIKR
notes: as for B4
B6: huTIGIT-3-1 (antibody, human IgG1, kappa, V domains shown)
VH: EVQLVESGGGLVQPGGSLRLSCAASGFTFSSYGMSWVRQAPGKGLELVATIKSSGGSTNLADSVKGRFTISRDNSKNTLYLQMNSLRAEDTAVYYCVRGYFDYWGQGTTVTVSS
VL: DIQMTQSPSSLSASVGDRVTITCRASQDIKTALAWYQQKPGKSPKLLIYWASTRQSGVPSRFSGSGSGTDFTLTISSLQPEDVATYYCQQYYSTPYTFGGGTKVEIKR
notes: Humanized IgG; also called 3VH3.M4 + 3VL4.M6
B7: reshaped TIGIT-3 antibody 3VH3 + 3VL (antibody, V domains shown)
VH: B6 VH with S54D, A61P
VL: DIVMTQSHKFMSTSVGDRVSITCKASQDVKTAVAWYQQKPGQSPKLLIYWSSTRHTGVPDRFTGSRSLTDHTLTISSVQAEDLALYYCQQYYSTPYTFGGGTKLELK
notes: Full-length IgG, tested as HEK293 supernatant
B8: reshaped TIGIT-3 antibody 3VH3.M4 + 3VL (antibody, V domains shown)
VH: B6 VH
VL: B7 VL
notes: as for B7
B9: reshaped TIGIT-3 antibody 3VH3.M4 + 3VL5.M6 (antibody, V domains shown)
VH: B6 VH
VL: DIQMTQSPSSLSASVGDRVTITCRASQDIKTALAWYQQKPGQSPKLLIYWASTRQSGVPSRFSGSGSGTDFTLTISSLQPEDVATYYCQQYYSTPYTFGGGTKVEIK
notes: as for B7

Molecular target: T1, His-tagged human TIGIT (human, UniProt Q495A1 22-141)
T1 construct: SPR analyte; also called human TIGIT protein; not shown: His tag
T1 sequence: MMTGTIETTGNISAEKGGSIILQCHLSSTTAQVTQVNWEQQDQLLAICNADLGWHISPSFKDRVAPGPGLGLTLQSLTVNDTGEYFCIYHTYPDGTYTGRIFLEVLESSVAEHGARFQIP
Test: SPR experiment 1, IgG from HEK293 supernatant captured

Binder	Kd [nM]	koff [s⁻¹]	kon [M⁻¹ s⁻¹]
B1	0.094	5.3e-05	560000

Molecular target: T2, His-tagged cynomolgus TIGIT (cynomolgus, UniProt A0A7N9I9V4 89-209)
T2 construct: SPR analyte; also called cynomolgus TIGIT protein; not shown: His tag
T2 sequence (A0A7N9I9V4 entry or part of it): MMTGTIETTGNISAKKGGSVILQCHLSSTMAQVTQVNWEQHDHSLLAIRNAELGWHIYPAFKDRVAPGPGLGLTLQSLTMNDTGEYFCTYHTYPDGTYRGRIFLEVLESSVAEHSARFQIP
Test: SPR (Biacore T200), antibody captured, His-tagged TIGIT analyte

Binder	Kd [nM]	koff [s⁻¹]	kon [M⁻¹ s⁻¹]
B2	5.4	0.0011	200000
B3	1.8	0.0002	110000
B4	1.1	0.0002	180000
B1	54	0.0049	90000
B5	7.7	0.0075	980000

Molecular target: T1, His-tagged human TIGIT
Test: as above

Binder	Kd [nM]	koff [s⁻¹]	kon [M⁻¹ s⁻¹]
B2	0.065	4.3e-05	660000
B3	0.081	5.9e-05	730000
B4	0.19	0.00016	860000
B1	0.24	0.00013	560000
B5	1.6	0.0019	1.2e+06

Molecular target: T2, His-tagged cynomolgus TIGIT
Test: as above
Remark: another data set of the same source

Binder	Kd [nM]	koff [s⁻¹]	kon [M⁻¹ s⁻¹]
B2	3	0.00083	270000
B3	0.45	5.3e-05	120000
B6	18	0.0022	120000
B1	39	0.0046	120000

Molecular target: T1, His-tagged human TIGIT
Test: as above
Remark: another data set of the same source

Binder	Kd [nM]	koff [s⁻¹]	kon [M⁻¹ s⁻¹]
B2	0.055	3.5e-05	630000
B3	0.075	4.7e-05	630000
B6	0.54	0.00031	570000
B1	0.17	9e-05	520000

Molecular target: T3, human TIGIT expressed on CHO-K1 cells (human, UniProt Q495A1 22-244)
T3 construct: whole, on cells; also called human TIGIT-CHO-K1 cells; human TIGIT over-expressing cell line
T3 sequence (looked up): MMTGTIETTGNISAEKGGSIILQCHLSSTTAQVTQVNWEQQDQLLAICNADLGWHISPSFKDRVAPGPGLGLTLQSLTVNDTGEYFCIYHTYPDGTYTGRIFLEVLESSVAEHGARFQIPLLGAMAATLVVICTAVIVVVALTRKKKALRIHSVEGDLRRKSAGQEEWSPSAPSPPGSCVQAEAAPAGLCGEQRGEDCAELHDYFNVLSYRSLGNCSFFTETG
Test: flow cytometry competition: biotinylated CD155-Fc on human TIGIT-CHO-K1 cells

Binder	IC50 [nM]
B2	0.95
B3	0.558
B6	0.502
B1	0.566

Molecular target: T3, human TIGIT expressed on CHO-K1 cells
Test: as above
Remark: another data set of the same source

Binder	IC50 [nM]
B2	1.4
B3	0.38
B4	1.07
B1	0.57
B5	0.72

Molecular target: T1, His-tagged human TIGIT
Test: SPR experiment 2, IgG from HEK293 supernatant captured

Binder	Kd [nM]	koff [s⁻¹]	kon [M⁻¹ s⁻¹]
B7	0.48	0.00025	520000
B8	0.36	0.00016	450000

Molecular target: T4, cynomolgus TIGIT expressed on CHO-K1 cells (cynomolgus, UniProt A0A7N9I9V4 89-312)
T4 construct: whole, on cells; also called cynomolgus TIGIT over-expressing cell line
T4 sequence (A0A7N9I9V4 entry or part of it): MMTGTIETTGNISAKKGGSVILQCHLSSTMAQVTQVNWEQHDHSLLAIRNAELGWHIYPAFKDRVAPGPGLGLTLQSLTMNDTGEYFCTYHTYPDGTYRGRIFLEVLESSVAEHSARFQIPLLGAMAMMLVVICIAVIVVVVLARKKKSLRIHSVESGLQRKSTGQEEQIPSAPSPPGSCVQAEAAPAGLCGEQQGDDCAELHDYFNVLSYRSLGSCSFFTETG
Test: flow cytometry on CHO-K1 cells expressing cynomolgus TIGIT

Binder	EC50 [nM]
B2	2.35
B3	1.42
B6	1.72
B1	2.31

Molecular target: T4, cynomolgus TIGIT expressed on CHO-K1 …
Test: as above
Remark: another data set of the same source

Binder	EC50 [nM]
B2	2.77
B3	2
B4	3.53
B1	2.64
B5	0.74

Molecular target: T5, TIGIT on TIGIT-over expressing NFAT-Luc/Jurkat effector cells (GenScript reporter cell line) (UniProt Q495A1 22-244, limits assumed)
T5 sequence (looked up): T3 sequence (looked up)
Test: cell-based or functional assay

Binder	Bottom (RLU)	EC50 [nM]	Top (RLU)
B2	12600	9.28	44200
B3	11200	2.77	42800
B4	7720	17.4	51900
B1	10900	9.42	49800
B5	9960	92.8	59800

Molecular target: T3, human TIGIT expressed on CHO-K1 cells
Test: flow cytometry on CHO-K1 cells expressing human TIGIT

Binder	EC50 [nM]
B2	1.05
B3	0.346
B6	0.511
B1	0.581

Molecular target: T1, His-tagged human TIGIT
Test: SPR experiment 4, IgG from HEK293 supernatant captured

Binder	Kd [nM]	koff [s⁻¹]	kon [M⁻¹ s⁻¹]
B3	0.28	0.00017	610000
B6	0.56	0.00046	820000
B9	0.5	0.00043	870000

Molecular target: T1, His-tagged human TIGIT
Test: SPR experiment 2, IgG from HEK293 supernatant captured
Remark: another data set of the same source

Binder	Kd [nM]	koff [s⁻¹]	kon [M⁻¹ s⁻¹]
B1	0.29	0.00012	420000

Molecular target: T3, human TIGIT expressed on CHO-K1 cells
Test: flow cytometry on CHO-K1 cells expressing human TIGIT
Remark: another data set of the same source

Binder	EC50 [nM]
B2	0.95
B3	0.53
B4	1.03
B1	0.42
B5	0.51

Molecular target: T1, His-tagged human TIGIT
Test: SPR experiment 1, IgG from HEK293 supernatant captured
Remark: another data set of the same source

Binder	Kd [nM]	koff [s⁻¹]	kon [M⁻¹ s⁻¹]
B3	0.24	0.00012	510000
B7	0.25	0.00015	580000

Molecular target: T5, TIGIT on TIGIT-over expressing …
Test: cell-based or functional assay
Remark: another data set of the same source

Binder	Bottom (RLU)	EC50 [nM]	Top (RLU)
B2	55300	9.69	142000
B3	55800	2.1	148000
B6	54400	4.92	152000
B1	51400	4.9	139000
